The series “native gel or EMSA” concerns the molecule itself. In words: native gel or EMSA. (Mobility shift assays separate free from complexed probe on a gel.)
The next series deals with T1, ParB, purified (C. crescentus, UniProt P0CAV8 1-304).
T1 sequence (looked up): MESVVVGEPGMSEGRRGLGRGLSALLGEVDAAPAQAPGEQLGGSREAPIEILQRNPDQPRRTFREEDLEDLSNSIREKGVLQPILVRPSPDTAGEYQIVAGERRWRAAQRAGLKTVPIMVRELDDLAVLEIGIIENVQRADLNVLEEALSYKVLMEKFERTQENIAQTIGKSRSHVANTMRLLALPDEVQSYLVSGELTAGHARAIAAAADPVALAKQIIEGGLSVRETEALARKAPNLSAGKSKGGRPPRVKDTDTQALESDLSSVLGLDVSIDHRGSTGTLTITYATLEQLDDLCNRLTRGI
Briefly: SPR. Background: Surface plasmon resonance follows binding to a sensor surface in real time, without labels.

The series “SEC” concerns the molecule itself. In words: SEC.

One may read the Kd as the equilibrium constant for the complex coming apart.

B1: PopZ (Polar Organizing Protein Z), purified, 6-His tag cleaved (natural protein, C. crescentus, UniProt Q9A8N4 1-177, looked up)
chain: MSDQSQEPTMEEILASIRRIISEDDAPAEPAAEAAPPPPPEPEPEPVSFDDEVLELTDPIAPEPELPPLETVGDIDVYSPPEPESEPAYTPPPAAPVFDRDEVAEQLVGVSAASAAASAFGSLSSALLMPKDGRTLEDVVRELLRPLLKEWLDQNLPRIVETKVEEEVQRISRGRGA
As to B1, in the series “native gel or EMSA”, the binding result is “binds”. The Kd in the series with ParB, purified came out at 20 nM.

B2: 6His-PopZ (His-tagged PopZ) (natural protein, C. crescentus, UniProt Q9A8N4 1-177, looked up)
chain: B1 chain
With B2, the binding result in “SEC” is given as “binds”.

Values taken from publication PMC2745220 (Cell, 2008).
